For 4 compounds, binding and Kd results are on record in paper PMC5335332, “Arsenite oxidation regulator AioR regulates bacterial chemotaxis towards arsenite in Agrobacterium tumefaciens GW4” (Scientific Reports, 2017).

For data set [1], the system named is T1, AioR DNA-binding domain (HTH) (Agrobacterium tumefaciens GW4), ORF:ca4d298f.
T1 sequence: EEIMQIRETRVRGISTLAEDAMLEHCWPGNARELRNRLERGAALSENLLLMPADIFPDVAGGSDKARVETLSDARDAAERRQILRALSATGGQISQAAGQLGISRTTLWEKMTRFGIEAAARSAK
In words: EMSA. The following applies: 20 mM Tris-HCl pH 7.0, 50 mM NaCl, 1 mM DTT, 10 mM MgCl2, 100 ug/mL BSA; 28 C, 30 min; 6% native PAGE in 1x TGE. In general terms: A gel shift assay detects complexes by their altered migration in electrophoresis.

Data set [2] shares this test system. In words: competition. The conditions noted are these: 20 mM Tris-HCl pH 7.0, 50 mM NaCl, 1 mM DTT, 10 mM MgCl2, 100 ug/mL BSA; 28 C, 30 min; 6% native PAGE in 1x TGE.
Data set [3] has the same test system. In words: DNase I footprinting. The following applies: 20 mM Tris-HCl pH 7.0, 50 mM NaCl, 1 mM DTT, 10 mM MgCl2, 100 ug/mL BSA; 28 C, 30 min; 6% native PAGE in 1x TGE.
In data set [4] the target is T2, Mcp (sensing domain; truncated Mcp).
T2 construct: predicted extracellular sensing domain, aa 43-325, EcoRI-HindIII in pET-28a(+), His-tagged, E. coli, Ni-NTA; one of 20 mcp genes in the genome; Trp residues W44, W166, W254, W308
In words: intrinsic tryptophan fluorescence quenching at […] nm. The format is binding, Agrobacterium tumefaciens. The following applies: 1.0 μM protein, 0-25 μM As(III), 1 h, room temperature.

In the case of “TACGGAAAGCACAATACGTGTGCGAATGAAACCAGTTTGCAGTGTTCGGATTTCCGAACATCATTGAAATAAATGCCGTTATTTTGTGCAGTATAGATTGATTAATATGTTTTATTTATAATATAAATTTTTGCTACATAGCAGTATTCGGATTTAATCGGAGCCAGCATTTGCTTATTGCTACATATATAAACACCTATAAGCTCTAATATGATTCTTTTATGACAATAATATCGAAAAATTAACTATGCGATCCCAG (double strand) [mcp regulatory region, 259 bp]”, the binding result in data set [1], in data set [2] and in data set [3] was “binds” in each case. For the compound “TACGGAAAGCACAATACGTGTGCGAATGAAACCAGTTTGCAGTTGTCGGATTTCCGCTTATCATTGAAATAAATGCCGTTATTTTGTGCAGTATAGATTGATTAATATGTTTTATTTATAATATAAATTTTTGCTACATAGCAGTATTCGGATTTAATCGGAGCCAGCATTTGCTTATTGCTACATATATAAACACCTATAAGCTCTAATATGATTCTTTTATGACAATAATATCGAAAAATTAACTATGCGATCCCAG (double strand) [mutant mcp regulatory region]”, the binding result in data set [1] is listed as “no binding”. For the compound `O[As](O)O` [As(III)], the Kd – broadly, the equilibrium constant for the complex coming apart – in data set [4] was 11 ± 3.02 µM. Regarding “TTTCACGCACGACACTCTGGGAGAAGATGACGCGTTTCGGAATAGAAGCAGCCGCACGTTCGGCCAAATGAACAACGGCGGCGAGACGCTGTTCGGAAAAGCGAACGGGCAACTGGCCATCAAACGGGAAAATATCTATATTTCAGTATTTTAGGAATTGGCATAGCAAT (double strand) [aioBA regulatory region, 170 bp]”, the binding result in data set [1] is “binds”.
